Reference: patent US20170355773A1
Changes are numbered by the printed parent chain.

B1: 27A3 (scFv mutant of W3072-z4C12) (scFv, V domains shown, not shown: small tags and cut ends)
VH: EVQLVESGGGLSQPGNSLQLSCEASGFTFSNHDLNWVRQAPGKGLEWVAYISSASGLISYADAVRGRFTISRDNAKNSLFLQMNNLKSEDTAMYYCARDPPYTGLYALDFWGQGTQVTVSS
VL: QPVLTQSPSASASLSGSVKLTCTLSSELSSYTIVWYQQRPDKAPKYVMYLKSDGSHSKGDGIPDRFSGSSSGAHRYLSISNVQSEDDATYFCGAGYTLAGQYGWVFGSGTKVTVL
B2: 43F11 (scFv mutant of W3072-z4C12) (scFv, V domains shown, not shown: small tags and cut ends)
VH: B1 VH with T103S
VL: B1 VL with Y31F
B3: 42G2 (scFv mutant of W3072-z4C12) (scFv, V domains shown, not shown: small tags and cut ends)
VH: B1 VH with T103S
VL: B1 VL with S30W
B4: 42F9 (scFv mutant of W3072-z4C12) (scFv, V domains shown, not shown: small tags and cut ends)
VH: B1 VH with T103S
VL: B1 VL with S30F
B5: 42H8 (scFv mutant of W3072-z4C12) (scFv, V domains shown, not shown: small tags and cut ends)
VH: B1 VH with T103S
VL: B1 VL with S30Y
B6: 66B8 (scFv mutant of W3072-z4C12) (scFv, V domains shown, not shown: small tags and cut ends)
VH: B1 VH with T103S
VL: B1 VL with G100N

These binders were tested against TNFRSF25-Fc protein (UniProt Q93038) (assay: single point capture ELISA: scFv on anti-c-myc, biotinylated antigen, streptavidin-HRP).

| OD450 | Binder |
| --- | --- |
| 1.61 | B1 |
| 1.6 | B2 |
| 3.19 | B3 |
| 2.33 | B4 |
| 1.67 | B5 |
| 0.4 | B6 |

What follows are binders tested against TNFRSF25-Fc protein (UniProt Q93038) (assay: capture ELISA, scFv, against the wild-type).

| fold increase in ELISA signal [fold] | Binder |
| --- | --- |
| > 10 | B3 |
